In publication PMC7949152, “A resistant mutant of Plasmodium falciparum purine nucleoside phosphorylase uses wild-type neighbors to maintain parasite survival” (The Journal of Biological Chemistry, 2021):

Test system: OC[C@H]1O[C@@H](n2cnc3c(O)ncnc32)[C@H](O)[C@@H]1O
Test: Michaelis-Menten kinetics, xanthine oxidase-coupled assay (Km)
Type: biochemical, Plasmodium falciparum
Settings: phosphate catalytic site

## Plasmodium falciparum purine nucleoside phosphorylase (PfPNP), native subunits (natPNPfus) (Plasmodium falciparum 3D7)
  Km: 5.4 µM
